{
  "source": "patent US12564623B2",
  "about": "“Methods and compositions for treating cancer” (The University of Chicago, priority 2017, dated 2026)",
  "molecules": {"B1": {"name": "neutrophil elastase (protein, listed as Homo sapiens)", "chain": "MTLGRRLACLFLACVLPALLLGGTALASEIVGGRRARPHAWPFMVSLQLRGGHFCGATLIAPNFVMSAAHCVANVNVRAVRVVLGAHNLSRREPTRQVFAVQRIFENGYDPVNLLNDIVILQLNGSATINANVQVAQLPAQGRRLGNGVQCLAMGWGLLGRNRGIASVLQELNVTVVTSLCRRSNVCTLVRGRQAGVCFGDSGSPLVCNGLIHGIASFVRGGCASGLYPDAFAPVAQFVNWIDSIIQRSEDNPCPHPRDPDPASRTH", "notes": "purified native ELANE"}},
  "key": {"tumors": {"system": "tumors", "assay": "Tumor apoptosis markers and CD95 staining after intratumoral delivery", "assay_type": "in vivo, mice", "protocol": "(FIG. 16A) MDA-MB-231, A549, or MEL888 (xenograft model) cells were injected into athymic nude mice; M1 or 4195 tumors (TNBC PDX models) were propagated in SCID mice; and E0771, LLC1, or B16F10 cells (syngeneic models) were injected into C57BL/6 mice. Once tumors reached ˜100 mm^3, ELANE (11.6 μg), or PMSF-ELANE (11.6 μg) were delivered intratumorally once/day for 5 days. Tumors were isolated on day 6, formalin fixed, and examined by immunohistochemistry or immunofluorescence staining for TUNEL, cleaved-PARP (cPARP), and cleaved CASP3 (cCASP3). Images were taken under 40×. (FIG. 16B) Tumor sections were stained with N-terminal (N-CD95) and C-terminal (C-CD95) specific anti-CD95 antibodies, followed by secondary antibody staining (Alex fluor 488 and 594 for C-CD95 and N-CD95 respectively). Fluorescence intensity quantification was performed on 3-4 areas/mouse."}, "CD95": {"system": "CD95", "assay": "Recombinant CD95 degradation, SDS-PAGE and coomassie blue", "assay_type": "biochemical, human", "conditions": "ELANE 0.05 μg, 1 μg recombinant protein, 2 hrs at 37° C.", "protocol": "ELANE lowers CD95 levels in cancer cells and reduced CD95 levels are associated with apoptosis. (FIG. 8A) Recombinant proteins (1 μg) corresponding to full length CD95 (FL-CD95), N-terminal domain of CD95 (amino acids 1-173; N-CD95), or C-terminal domain of CD95 (amino acids 157-320; C-CD95) were inbuated with ELANE (0.05 μg) or vehicle (Veh) for 2 hrs at 37° C. Degradation was assessed by SDS-PAGE followed by coomassie blue staining. […] (FIG. 8C) Cancer cells were treated with ELANE (50 nM) for 1 hr, fixed in 10% formalin, and stained with N- or C-terminal specific anti-CD95 antibodies (green). Hoechst 33342 solution was used for nuclear staining (blue). Images were taken under 40×.\nELANE selectively cleaves the C-terminal domain of CD95. […] Degradation was assessed by SDS-PAGE followed by staining with coomassie blue. […] Mel888 cancer cells were treated with ELANE (50 nM) for various times, and CD95 degradation was assessed by western blot analysis with a C-terminal specific anti-CD95 antibody.\nOther serine proteases cleave the C-terminal domain of CD95, and the ability to cleave the C-terminal domain is associated with cancer cell killing. […] Degradation was assessed by SDS-PAGE followed by coomassie blue staining. […] Cell viability was assessed by Calcein AM staining."}, "Cancer cells": {"system": "Cancer cells", "assay": "ELANE uptake and killing with endocytosis inhibitor Dynasore", "assay_type": "cell-based", "conditions": "ELANE 30 nM, Dynasore 80 μM, 6 hours", "protocol": "(FIG. 9A) Cancer cells were treated with ELANE (100 nM) in the presence or absence of a broad endocytosis inhibitor Dynasore (80 μM) for 30 mins. ELANE catalytic activity in cell lysates was assessed by a chromogenic substrate assay. (FIG. 9B) Cancer cells were treated with ELANE (30 nM) in the presence or absence of Dynasore (80 μM) for 6 hours. Cell viability was examined by Calcein AM staining. *, p<0.05, Student's t-test."}, "[1]": {"system": "E0771, B16F10, or LLC1 cancer cells", "assay": "Tumoral immune cell analysis by flow cytometry", "assay_type": "in vivo, C57BL/6 mice", "conditions": "11.6 μg intratumorally once/day for 5 days, day 6", "protocol": "E0771, B16F10, or LLC1 cancer cells were injected into C57BL/6 mice. Once tumors reached ˜100 mm^3, ELANE (11.6 μg) or PMSF-ELANE (11.6 μg) were delivered intratumorally once/day for 5 days. Tumors were isolated on day 6 and digested for immune cell analysis by flow cytometry. CD45+ cells are the total immune cells; macrophages (Mac) are defined as CD45+CD11b+CD11c^lowMHCII^low, neutrophils (Neu) are defined as CD45+CD11b+Ly6G+, dendritic cells (DC) are defined as CD45+CD11b+CD11c^highMHCII^high, B cells (b) are defined as CD45+B220+, NK cells (NK) are defined as CD45+NK1.1+CD16+, CD4+ T cells (CD4T) are defined as CD3+CD4+CD8−, CD8+ T cells (CD8T) are defined as CD3+CD8+CD4−, CD8 effector T cells (CD8Teff) are defined as CD3+CD8+CD4−CD62L−CD44+. *, p<0.05, Student's t-test. (FIG. 17)"}, "E0771 cancer cells": {"system": "E0771 cancer cells", "assay": "ELANE with anti-PD-L1 in a mouse model of TNBC", "assay_type": "in vivo, C57BL/6 mice", "conditions": "ELANE 11.6 μg + anti-PD-L1 100 μg", "protocol": "E0771 cancer cells were injected into C57BL/6 mice. Once tumors reached ˜100 mm^3, mice were randomly separated into four groups: ELANE (11.6 μg), PMSF-inactivated ELANE (PMSF-ELANE), anti-PD-L1 (BioXCell, 10F.9G2, 100 μg), and ELANE (11.6 μg)+anti-PD-L1 (100 μg). n=8-9 mice/group. Anti-PD-L1 monoclonal antibody was injected intaperitoneally on days 10, 14, 18, and 22 after tumor inoculation. ELANE or PMSF-ELANE were delivered intra-tumorally when tumors reached ˜[…] (˜ 14 days post cancer cell injection). (FIG. 20A) Tumor volume was measured by calipers. (FIG. 20B) Kaplan-Meier curve was plotted and the logrank test (Mentel-Cox method) was used for mouse survival analysis. End point of survival is defined as tumor volume >1000 mm^3. *, p<0.05, Student's t-test."}},
  "note": "“Also recorded” adds a separate entry of the source.",
  "data": [
    {"molecule": "B1", "values": [
      {"measurement": "C-CD95 levels in tumors", "setting": "tumors; 11.6 μg intratumorally once/day for 5 days, day 6", "value": "attenuates C-CD95 levels in vivo"},
      {"measurement": "apoptosis in tumors", "setting": "tumors; intratumoral delivery, mouse cancer models", "value": "induces cancer cell apoptosis; also recorded: induced widespread apoptosis"},
      {"measurement": "cleavage of CD95 domains", "setting": "CD95", "value": "preferentially cleaves the C-terminal domain of CD95"},
      {"measurement": "dependence of killing on uptake", "setting": "Cancer cells", "value": "internalization is required to kill cancer cells"},
      {"measurement": "tumoral immune cells", "setting": "[1]", "value": "increases tumoral immune cells"},
      {"measurement": "efficacy with anti-PD-L1", "setting": "E0771 cancer cells", "value": "enables anti-PDL1 efficacy"}
    ]}
  ]
}
